From the supplement of paper PMC12042874
± gives the uncertainty stated by the source.

assay: amyloid nucleation score (Sup35N fusion, yeast selection) (log enrichment); library NNK3; higher = more nucleation; inactive = no reads after selection
Outline: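 The nucleation score, computed with DiMSum, is the log enrichment of output over input reads, centred on the mode score of non-aggregating sequences. Sequences with under 100 input reads were dropped. Reads were generated by Illumina sequencing of plasmid inserts from psi-negative yeast with Sup35N fused to peptides of 20 random codons, induced with 100 μM copper sulfate for 24 hours and grown 7 days at 30°C on medium lacking adenine and uracil.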

Amyloid nucleation score, 0.502 ± 0.32:
SVRVYGDCLCECWSCYTPRT

Amyloid nucleation score, 1.82 ± 0.11:
TCNIFLGAPHGAVGRCCRAR

Amyloid nucleation score, -0.552 ± 0.71:
SVNNVAWWHYGKMRVNFTFS

Amyloid nucleation score, 0.327 ± 0.27:
SWSFMFSFSNSATNAACLPQ

Amyloid nucleation score, 2.24 ± 0.069:
TCRICTFGVWDFCRTDERRH

Amyloid nucleation score, -0.455 ± 0.52:
TCACIWGVSVWCYRSQVFAQ

Amyloid nucleation score, -0.237 ± 1.5:
SVSRRGKDR

Amyloid nucleation score, 0.293 ± 0.24:
SNVCINLAGYDYIFFRCMMG

Amyloid nucleation score, 2.12 ± 0.051:
TCFVLQNKYVSRCGCWMCYS

Amyloid nucleation score, 1.31 ± 0.12:
STIDKCLYINIAIYAIFPDF

Amyloid nucleation score, -0.845 ± 1.4:
TDSLFGVIDHFYENRFW

Amyloid nucleation score, 1.55 ± 0.1:
SSPSWFTYLVKQVALRSVTQ

Amyloid nucleation score, inactive:
SNSDVN
SNTFTPKGNPLWSSVCVFHQ
SNVLGWLRKLYS
SNWKGEISIHEGMLGCT
SNWVISVLVRVNLAYAYLTD
SPDVLFESKYRFWDMLSQIA
SPLSRWLVDNTGPLGGSLSR
SPNNTTFSHYRFCLL
SPPLYSYRGRYMERYHSKWN
SPPTGYRASNWRGLGSVDGW
SPVAYRSTWFVFRNNSHYDQ
SPWAMGCECLVRGGLEKYAK
SQKEGNKDRPVCVSGNSSCS
SQVLWGTSRGLYYTDRNFTN
SQVVSRSLVRLEQRNAQKSV
SQYHQASNAMWVLFSGI
SRDMCAWWVYSGSSQSNECM
SREWSKSVVCTYLTMRGRLS
SRFDDCSVYRESWVSIVRLS
SRLTAFMNYVGCRMVSGWTR
SRMTIIWVTVRISRNGTWNF
SRMTIVKSWKRMLGRLLMRL
SRQLQPYYSVFRCLVRGSIK
SRQNIFLLRLKTMTGQSVNI
SRRNIPVGGLSNWLPVWSVG
SRRSHWFWEPSDTCASFTRP
SRRTIVNQSSF
SRRVISEHSMEGNTID
SRVHPPLWIKCTVGMVPQTC
SRVNCLARLRSPARLMPMVR
SRWNK
SRWYFGLLLMNNTHTVNVPL
SRYLGKGFVSGTCDVGCGLN
SSDIIHGNDVRSLVRRDRSL
SSDMFFRYESPVH
SSDYTLVEILSVLFCPVGCS
SSESDVNLDVMSKYKFGNIH
SSFGQICIRSMQYLVGCKWC
SSFNFTSIVLHIANLLHFFL
SSFQSYYTSSDMTEF
SSITRVEKSCIFLCTALMLR
SSKCWSTSCFFKGKSLSSLG
SSLTSNCPRKALKREVVRHW
SSMVTSLGCVLYKL
SSNLDTTVCFPVCSAPELEG
SSQLDHVRLSGYVLTLEGPF
SSRRSNYASSDPIWIVSLFG
SSRVNKGEVARLVVSIPIIH
SSSAFCGVAIRALIAGGKGY
SSSKMW
SSSQTISQGDSGHLHYKVWS
SSSTFPSSKIDYGTIR
SSYIESQELHSWAVQLRLLV
STCKKNWNIARRI
STKSSLRYNLEQLPDLLKIV
STNGLLTSNS
STRRSYNPCYWSGLYSSIGH
STSVSLTWNPKKRLYYLLTI
STSVSYEWPDLGACIGGDFG
STTDRTWNGYDDILYTYLYF
STYGRMAR
SVGVGNIHTR
SVNWMVSKLRSPNSQGLAIE
SVRFDDAMIDGITSAYMIKY
SVRLSIVAGWFCKIWYSFLL
SVRRHSSGCMNNAL
SVSGKRFDVMVLFLHSSKRL
SVSPEWYSSLLGSLCGAGFL
SVSVRRNYKLIFAASM
SVTFDAWYCWMN
SVTLRATGSGNRRYDAIRNY
SVTPFPIIFN
SVVVVSWTTMLNDKLDPLDG
SVVYRKDSIKQRKEFSSHAF
SVWLASCYHLIWVELGRWDI
SVWRECNGKFVSFASHFADY
SVYCCIDKLLHSAKSRLFMM
SVYGKFILAAVAGLRFGGLK
SWCSPNGPQGLEVCSMRPFR
SWIKEFIQFIFIEGFRC
SWMTTRKGGDVALHASLFRM
SWTGCKYIQKYRCRRWCNNF
SWVTDWIL
SWVTVYTVMRVWVTFGNRRR
SWVVDITDRRSLFIDTPRFT
SYAGKGLTLQTHHDWRSGNG
SYCHRRLLSRVSLLVASSVK
SYCLTGTDSVINVIGAGPSQ
SYFSYPCCCCVVARFLNYVC
SYKGLCS
SYKMNVMT
SYMYLRGVLRYLVDMFALWI
SYNTYSVYGWGKGPRNYDWQ
SYRFYDDQSLCG
SYRPDSCRLNTMNDFSSCCS
SYRYFGGSDYRLCGGIWMLA
SYSLNNYMTKLVWIYVSWLL
SYVCIIYGNDGSLSRCKDDL
SYWRLHVIIFLWFFYLRYFN
TADLRRQTLGWGKFYYVSWF
TANLGRCYCKLSNFTSGWFL
TATHKLTNIPW
TAWLSSNFVSDRHCGYGSDC
TAYMNQIVNRELYP
TCIQYSKFLRA
TCKVMSSGYYVLYLDVRV
TCSMSTARSCSHKSNRVMHW
TCWRGELMELTDMLSVALLR
TDAIVFMEHSDVGRSSLDWN
TDAYKLITFIFPCKYLVTVC
TDDAGMYDNRFQSMSDENTF
TDFDNFSDTF
TDFIIRKSYQLLEFYFY
TDRVNFSRLFSLIHDWLTPG
TDVMVYHPFL
TEGLKIFDDET
TEHKVSFPHFVKYKPSLSSY
TFCFLQVN
TFIHRHINNTSQLPGSFMKL
TFKARSLILSLKLYANMDH
TFLVTRVPYSFF
TFQRSGT

Amyloid nucleation score, 0.586 ± 0.12:
SSELLLHGGTYYKIIYK

Amyloid nucleation score, 2.73 ± 0.056:
TCCCVYGTMIISEYFHGSNM

Amyloid nucleation score, -0.264 ± 0.64:
SPCYISINTFPVRKILYPCI

Amyloid nucleation score, -0.409 ± 0.76:
SNQLSFLYNN

Amyloid nucleation score, -0.932 ± 1.8:
SWLANRYMGDYIRQWVWDKL

Amyloid nucleation score, 0.492 ± 0.35:
TDGRITS

Amyloid nucleation score, 0.867 ± 0.12:
SRVLDGVWRAVLSCFQGSSI

Amyloid nucleation score, -0.206 ± 1.5:
TDLGSVGGW

Amyloid nucleation score, 1.13 ± 0.1:
SVMLDNTVVFTIRSGHCSES

Amyloid nucleation score, -0.098 ± 0.85:
SRCIDGSAWASVAQRRSFSE

Amyloid nucleation score, 1.86 ± 0.082:
SPNWGLLGICLSTSRVQAL

Amyloid nucleation score, 0.909 ± 0.21:
SPLLGINYRVFNVCLLERR

Amyloid nucleation score, 2.62 ± 0.083:
SNSYHIVVYVRYGHSHG

Amyloid nucleation score, 0.846 ± 0.15:
TFLLLYGIMDSNVPTVRHAL

Amyloid nucleation score, -0.164 ± 0.96:
SRRSMHRVVSHVREGS

Amyloid nucleation score, 0.865 ± 0.12:
SVSVLHSYYLIYVCRDFFMK

Amyloid nucleation score, 0.464 ± 0.4:
TFAMGLSARSISYCTNTRCP

Amyloid nucleation score, 0.234 ± 0.56:
SSISVRENYFMASRVMMVGC

Amyloid nucleation score, 1.38 ± 0.13:
STWYSRCVLALNLLLSCNRG

Amyloid nucleation score, 0.536 ± 0.32:
TCFFISSIFSFDKHVIVCCA

Amyloid nucleation score, 2.56 ± 0.083:
SSVSFVITGPVAFVWNQGLV
